Measured values taken from paper PMC8955265, “Systematic Discovery of FBXW7-Binding Phosphodegrons Highlights Mitogen-Activated Protein Kinases as Important Regulators of Intracellular Protein Levels” (International Journal of Molecular Sciences, 2022).
Where no end group is shown, it is not given here. [ ]: non-standard residue; d: D form. pT = C[C@@H](OP(=O)(O)O)[C@H](N)C(=O)O; pS = N[C@@H](COP(=O)(O)O)C(=O)O; CF = carboxyfluorescein

Molecular target: T1, Skp1-FBXW7 complex (human, UniProt P63208 1-149; Q969H0 263-707)
T1 construct: Skp1, truncated, residues 1-149; cDNA obtained from a HEK293T cell cDNA pool; human FBXW7, residues 263-707 (holds the WD40 domain); it was removed with TEV protease after Ni-NTA; also called purified FBXW7; FBXW7-Skp1 complex; source: E. coli Rosetta (DE3), co-expressed from a bicistronic plasmid (pMG950), purified (Ni-NTA, anion exchange, SEC); not shown: His6, N-terminal, cleaved
T1 sequence (P63208 1-149, chain 1 of 2): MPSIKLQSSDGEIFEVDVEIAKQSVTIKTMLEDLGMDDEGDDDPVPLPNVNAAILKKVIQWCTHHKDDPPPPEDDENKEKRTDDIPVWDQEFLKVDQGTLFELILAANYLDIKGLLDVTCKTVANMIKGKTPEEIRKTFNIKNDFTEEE
T1 sequence (Q969H0 263-707, chain 2 of 2): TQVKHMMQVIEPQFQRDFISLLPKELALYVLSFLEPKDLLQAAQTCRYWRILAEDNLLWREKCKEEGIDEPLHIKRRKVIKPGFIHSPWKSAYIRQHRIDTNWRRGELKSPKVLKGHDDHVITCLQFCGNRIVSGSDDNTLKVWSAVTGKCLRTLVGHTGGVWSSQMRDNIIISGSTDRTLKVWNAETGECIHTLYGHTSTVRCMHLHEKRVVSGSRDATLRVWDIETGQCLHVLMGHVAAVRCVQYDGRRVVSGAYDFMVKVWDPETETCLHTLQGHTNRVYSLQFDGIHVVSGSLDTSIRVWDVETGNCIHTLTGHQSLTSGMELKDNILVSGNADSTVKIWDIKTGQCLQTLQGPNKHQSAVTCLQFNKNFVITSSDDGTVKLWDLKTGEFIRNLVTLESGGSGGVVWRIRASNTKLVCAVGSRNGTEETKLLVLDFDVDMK
Experiment: fluorescence polarisation; direct titration: 50 nM CF-labeled CCNE peptide, increasing Skp1-FBXW7 complex; 20 mM Tris pH 8.0, 100 mM NaCl, 0.05% Brij35P, 2 mM TCEP; 384-well plates, 20 uL
Conditions: both partners purified

B1: carboxyfluorescein (CF) labeled CCNE peptide (CF-PSGLLpTPPQpSGKKQ) (peptide)
peptide: {CF}-PSGLL[pT]PPQ[pS]GKKQ
notes: bisphosphorylated degron motif of cyclin E1 (CCNE1); also called fluorescently labeled CCNE peptide; CCNE1 motif; source: synthetic peptide (GenScript)
B1: binds.
